Paper PMC5113810

T1: DNA polymerase kappa core (hpol κ19-536) (Homo sapiens, UniProt Q9UBT6 19-536)
T1 sequence: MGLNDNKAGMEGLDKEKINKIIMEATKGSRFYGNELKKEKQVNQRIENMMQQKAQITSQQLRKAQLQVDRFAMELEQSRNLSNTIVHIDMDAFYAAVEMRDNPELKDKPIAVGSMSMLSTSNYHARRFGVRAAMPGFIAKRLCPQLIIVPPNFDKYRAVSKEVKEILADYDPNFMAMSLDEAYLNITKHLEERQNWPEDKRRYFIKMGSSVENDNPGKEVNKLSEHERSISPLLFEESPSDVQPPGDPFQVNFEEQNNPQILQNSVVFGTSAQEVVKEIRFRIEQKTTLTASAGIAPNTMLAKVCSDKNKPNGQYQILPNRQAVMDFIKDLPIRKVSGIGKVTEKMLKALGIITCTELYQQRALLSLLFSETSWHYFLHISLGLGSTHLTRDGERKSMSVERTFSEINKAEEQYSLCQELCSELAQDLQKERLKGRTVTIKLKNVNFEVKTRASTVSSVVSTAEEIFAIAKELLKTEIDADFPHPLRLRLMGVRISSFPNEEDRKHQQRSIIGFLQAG


Target: T1, DNA polymerase kappa core (hpol κ19-536)
Test: fluorescence polarization

Binder | Kd [nM]
11/28-mer non-G4 DNA (mixed) DNA 1: ATCCTCCCCTA DNA 2: TATGTGACTATGCTGGGTAGGGGAGGAT | 86
11/28-mer G4 DNA (mixed) DNA 1: ATCCTCCCCTA DNA 2: TGGGTGGGTAGGGTGGGTAGGGGAGGAT | 15
